Molecular target: murine type IV collagen (murine) (UniProt P02463)
Experiment: adherence of recombinant bacteria to collagen-coated wells; intact E. coli EPI300 expressing Hag (~10^7 CFU in PBS with 0.15% gelatin) added to BioCoat murine type IV collagen wells with tissue culture medium; centrifuged 165 x g 5 min; 1 hr at 37°C, 7.5% CO2; washed five times; fixed, crystal violet; bacteria counted per microscopic field, normalized by CFU; negative control E. coli with pCC1.3

Sequence of UniProt P02463 (P02463 173-1669, chain 1 of 2): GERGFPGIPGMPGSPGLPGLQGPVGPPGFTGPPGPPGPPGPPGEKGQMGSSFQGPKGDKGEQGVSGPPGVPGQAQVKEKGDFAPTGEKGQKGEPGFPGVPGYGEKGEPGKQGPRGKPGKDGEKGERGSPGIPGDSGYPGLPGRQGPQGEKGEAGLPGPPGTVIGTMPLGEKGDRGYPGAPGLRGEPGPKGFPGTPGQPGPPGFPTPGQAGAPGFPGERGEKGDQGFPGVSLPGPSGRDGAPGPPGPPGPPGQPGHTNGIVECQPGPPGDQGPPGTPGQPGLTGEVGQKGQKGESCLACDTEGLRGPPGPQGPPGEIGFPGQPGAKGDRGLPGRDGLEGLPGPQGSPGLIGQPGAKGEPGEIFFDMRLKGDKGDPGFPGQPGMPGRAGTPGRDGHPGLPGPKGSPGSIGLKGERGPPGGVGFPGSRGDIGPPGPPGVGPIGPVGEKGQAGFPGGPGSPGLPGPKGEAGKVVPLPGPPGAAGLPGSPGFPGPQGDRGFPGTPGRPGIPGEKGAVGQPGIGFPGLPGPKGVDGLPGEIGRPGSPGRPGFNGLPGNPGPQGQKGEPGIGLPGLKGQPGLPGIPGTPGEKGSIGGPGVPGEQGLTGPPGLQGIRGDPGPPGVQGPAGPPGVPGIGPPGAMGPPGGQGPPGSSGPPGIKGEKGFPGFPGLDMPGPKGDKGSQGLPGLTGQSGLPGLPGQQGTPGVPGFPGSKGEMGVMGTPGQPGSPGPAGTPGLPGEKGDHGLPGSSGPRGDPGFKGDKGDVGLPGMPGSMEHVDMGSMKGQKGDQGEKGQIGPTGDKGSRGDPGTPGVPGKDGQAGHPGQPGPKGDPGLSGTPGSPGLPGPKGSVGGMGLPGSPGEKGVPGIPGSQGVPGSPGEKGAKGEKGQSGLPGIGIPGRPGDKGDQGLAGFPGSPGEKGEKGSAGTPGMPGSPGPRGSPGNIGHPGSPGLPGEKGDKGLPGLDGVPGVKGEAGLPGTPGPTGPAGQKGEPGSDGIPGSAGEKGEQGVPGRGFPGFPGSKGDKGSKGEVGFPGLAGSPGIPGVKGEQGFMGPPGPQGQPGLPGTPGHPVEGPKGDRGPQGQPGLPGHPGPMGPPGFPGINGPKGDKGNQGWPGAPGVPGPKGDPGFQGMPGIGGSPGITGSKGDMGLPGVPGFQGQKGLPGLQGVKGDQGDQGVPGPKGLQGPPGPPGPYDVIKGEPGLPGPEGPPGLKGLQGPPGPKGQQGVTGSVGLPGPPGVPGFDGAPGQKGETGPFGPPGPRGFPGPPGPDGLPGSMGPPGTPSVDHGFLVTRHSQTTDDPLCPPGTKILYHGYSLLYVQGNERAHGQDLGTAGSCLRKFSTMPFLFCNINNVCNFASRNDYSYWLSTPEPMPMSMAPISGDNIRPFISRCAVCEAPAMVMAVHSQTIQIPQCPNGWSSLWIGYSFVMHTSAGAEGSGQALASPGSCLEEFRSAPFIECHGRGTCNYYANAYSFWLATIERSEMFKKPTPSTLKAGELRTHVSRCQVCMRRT
Sequence of UniProt P02463 (P08122 184-1707, chain 2 of 2, further chain): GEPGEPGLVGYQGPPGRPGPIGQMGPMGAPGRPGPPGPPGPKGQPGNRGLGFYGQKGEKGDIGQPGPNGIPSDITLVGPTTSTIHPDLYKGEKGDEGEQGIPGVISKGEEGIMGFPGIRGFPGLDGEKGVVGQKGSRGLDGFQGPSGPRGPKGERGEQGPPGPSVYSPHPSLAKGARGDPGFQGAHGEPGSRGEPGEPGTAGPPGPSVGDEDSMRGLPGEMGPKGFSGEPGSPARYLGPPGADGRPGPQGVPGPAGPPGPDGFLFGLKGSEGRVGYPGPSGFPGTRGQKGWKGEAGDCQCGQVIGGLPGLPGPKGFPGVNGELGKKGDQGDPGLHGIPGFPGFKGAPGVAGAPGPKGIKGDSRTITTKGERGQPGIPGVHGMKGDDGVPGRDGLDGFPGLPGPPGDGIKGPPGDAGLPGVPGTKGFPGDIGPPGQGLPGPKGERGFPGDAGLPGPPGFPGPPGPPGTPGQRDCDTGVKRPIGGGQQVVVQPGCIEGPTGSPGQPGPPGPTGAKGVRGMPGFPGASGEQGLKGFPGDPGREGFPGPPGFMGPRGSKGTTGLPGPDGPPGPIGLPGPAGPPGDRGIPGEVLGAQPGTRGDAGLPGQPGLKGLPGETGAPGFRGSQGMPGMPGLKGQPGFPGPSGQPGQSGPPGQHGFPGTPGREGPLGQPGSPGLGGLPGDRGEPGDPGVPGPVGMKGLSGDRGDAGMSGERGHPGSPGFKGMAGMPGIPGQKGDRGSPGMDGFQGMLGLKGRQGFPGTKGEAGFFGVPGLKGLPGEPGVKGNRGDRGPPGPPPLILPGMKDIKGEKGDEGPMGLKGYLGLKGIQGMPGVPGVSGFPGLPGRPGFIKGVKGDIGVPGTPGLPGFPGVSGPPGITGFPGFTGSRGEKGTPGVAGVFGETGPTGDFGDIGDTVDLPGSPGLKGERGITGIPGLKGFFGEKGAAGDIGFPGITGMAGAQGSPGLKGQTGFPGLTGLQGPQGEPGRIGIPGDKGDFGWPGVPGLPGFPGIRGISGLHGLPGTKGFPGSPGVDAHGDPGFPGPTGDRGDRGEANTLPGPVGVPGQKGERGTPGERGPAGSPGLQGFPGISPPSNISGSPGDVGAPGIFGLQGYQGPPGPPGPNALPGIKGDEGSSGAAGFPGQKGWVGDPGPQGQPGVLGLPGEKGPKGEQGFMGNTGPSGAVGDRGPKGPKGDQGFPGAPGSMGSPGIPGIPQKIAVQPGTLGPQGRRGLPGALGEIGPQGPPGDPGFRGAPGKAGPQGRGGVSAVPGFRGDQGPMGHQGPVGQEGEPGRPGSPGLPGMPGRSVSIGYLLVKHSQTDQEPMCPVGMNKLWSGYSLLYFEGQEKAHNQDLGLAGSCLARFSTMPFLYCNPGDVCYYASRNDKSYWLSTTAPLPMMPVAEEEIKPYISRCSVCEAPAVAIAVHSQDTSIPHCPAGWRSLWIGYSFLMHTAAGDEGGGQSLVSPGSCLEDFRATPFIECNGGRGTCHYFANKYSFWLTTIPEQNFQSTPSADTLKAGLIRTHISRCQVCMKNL

Substance	fold adherence to collagen over the negative control (E. coli with pCC1.3) [fold]
Moraxella catarrhalis strain O12E Hag protein (natural protein)	35
Moraxella catarrhalis strain V1171 Hag protein (natural protein)	35
Moraxella catarrhalis strain O35E Hag protein (wild type) (natural protein)	80

— publication PMC1931440
